This data set has as its target T1, (FNRD154A)2-His6 D154A (Escherichia coli) (UniProt P0A9E5).
T1 sequence: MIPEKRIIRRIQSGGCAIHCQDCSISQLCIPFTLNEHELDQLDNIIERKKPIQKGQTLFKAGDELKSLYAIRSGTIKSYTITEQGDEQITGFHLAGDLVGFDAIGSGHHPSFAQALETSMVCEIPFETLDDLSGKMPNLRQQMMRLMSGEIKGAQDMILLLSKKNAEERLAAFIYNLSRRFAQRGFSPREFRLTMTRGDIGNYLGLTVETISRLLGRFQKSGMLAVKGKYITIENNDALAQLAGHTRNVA
Description: EMSA. The settings on record: 20 mM Tris, 50 mM NaCl, 40 mM EDTA ([…], pH 6.8, 30 min at 37 C. (In general: Mobility shift assays separate free from complexed probe on a gel.)

As for “TCAGGCAGATAAACCCGTTCTTTGGCCTTGCCACTTAAAGTGCCAAAATCAATCTCCGTACTGATTTTCTCCGGTGTAAAAGAAAGCCCAGTATCAGAAGCCAGTGCAGCAAACGCTACAGGAGCTGAGAGTGCAGTAGCAAGAATCTTTAAGTACATAGACAAGTTAACTCCATTCCACTCGTTTGTTTTTGATAAATATTTTTTTATTTACTCGTAGTAGTCAACTGAAAAATGCTGTTTTGTTTAACGTTTGTTT (double strand) [ompT plasmid promoter PCR product]”, the binding entry is “binds”.
